For assay [1], the target named is T1, PSI domain of RON (G502-P544) thioredoxin fusion protein (human, UniProt Q04912 526-568).
T1 construct: Expressed in E. coli; also called PSI domain alone; not shown: thioredoxin (printed 'thiroedexin') fusion partner; purified on
T1 chain: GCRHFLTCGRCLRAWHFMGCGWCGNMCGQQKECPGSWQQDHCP
Put plainly: ELISA on plate-coated PSI domain thioredoxin fusion. The procedure:
The ability of the antibodies to bind to soluble RON was measured using a standard ELISA protocol. Briefly, soluble RON protein (R&D Systems, catalog 1947) was coated on Nunc Maxisorb ELISA plates at a concentration of […] in PBS overnight at 4° C. Plates were washed 4 times with an automatic washer in PBS, 0.05% Tween 20. Plates were then blocked in PBS+1% BSA for 1-2 hours at room temperature (RT). After washing, serial dilutions of the antibodies in blocking buffer were added to the plate (100 ul/well) and incubated for 1-2 hours at RT. The plate was washed again 4× with automatic washer (PBS, 0.05% tween 20). Next, the plate was incubated with HRP-labelled donkey anti-mouse polyclonal antibody (Jackson Labs 715-035-130) at a dilution of 1:4000 in blocking buffer (100 ul/well) for 0.5-1 hour RT. The plate was washed again 4× with automatic washer (PBS, 0.05% Tween 20). After the final wash step, the plate was developed with TMB solution (25 ml 100 mM sodium acetate, pH to 6 with citric acid, 4 ul 30% H202, 250 ul 42 mM TMB in DMSO) for 5 minutes. The reaction was stopped with 100 ul H₂SO₄. Plates were read at 450 nm wavelength on Molecular Devices Spectramax M5 and Softmax pro V5 software was used to analyze the data.
The PSI domain of RON (G502-P544) was expressed in E. coli as a thiroedexin-fusion protein. The protein was purified on NiNTA agarose (qiagen) followed by preparative size exclusion chromatography (SEC). This protein was used to coat ELISA plates and analyze antibodies for binding using the same protocol described above for binding of antibodies to soluble RON in Example 10.
Background: In an ELISA, binding on a coated surface is turned into a signal by an enzyme label.

For assay [2], the target named is T2, human RON (recepteur d'origine nantais, MST1R), full length, expressed on cells (human, UniProt Q04912 25-1400).
T2 construct: On SW480 tumor cells it is endogenous; also called hRON; SW480-RON cells
In words: flow cytometry on SW480 tumor cells, 4P fit (apparent affinity). As for the experimental part: The binding of RON antibodies to RON expressing tumor cells was analyzed by flow cytometry, and an apparent affinity was calculated. Confluent SW480 cells were detached with 5 mM EDTA, washed 1× with FACS buffer (1% FCS, 0.05% sodium azide, 1×PBS) and resuspended at 0.5-1.0×10⁷/ml. The cells were added to a 96-well V bottom polypropylene plate at 100 μl/well. Antibody dilutions were made up in FACS buffer at 2× final concentration and added to the plate at 100 μl/well. The plate was incubated for 1 hour at 4° C., followed by washing 3× with FACS buffer. The cell pellets were then resuspended in 150 μl of PE labeled goat anti-murine IgG H & L secondary antibody, diluted 1/200, and incubated for 1 hour at 4° C. The cells were then washed 1× with FACS buffer and fixed with 150 μl 3% formaldehyde at room temperature for 10 minutes. The cell pellets were resuspended in 150 μl FACS buffer and analyzed by FACS. The EC50 of binding was calculated from the binding curves using a standard 4P fit equation.
On the technique in general: Flow cytometry measures light scatter and fluorescence of single cells or particles in a stream.

B1: 1P3B2 murine monoclonal anti-RON antibody (antibody, V domains shown)
VH: EVQLQQSGPELEKPGASVKISCKASGYSFTGYNMNWVKQSNGESLEWIGDIDPYYGGTRYNQKFKGKATLTVDKSSSTAYMQLKSLTSEDSAVYYCAREGRGFAYWGQGTLVTVSA
VL: DIQMTQSPASLSASVGETVTITCRASENIYSYLAWYQKKQGKSPQLLVYNAKTSVEGVPSRFSGSGSGIQFSLKINSLQPEDFGSYYCHCQHHYGTLPTFGGGTKLEIK
notes: Whole murine hybridoma antibody; kappa light chain; also called 1P3B2.2; PTA-8813
Consider B1, for which the binding result in assay [1] is reported as “no binding”. Besides, the EC50 in assay [2] stood at 0.04 nM.

B2: 1P4A3 murine monoclonal anti-RON antibody (antibody, V domains shown)
VH: EVQLQQSGPELEKPGASVMISCKASGYSFTGYNMNWVKQSTGKSLEWIGDIDPYYDGTRYNQKFKGKATLTADKSSSTAYMQLKSLTSEDSAVYYCTREGRGFAYWGQGTLVTVSA
VL: DIQMTQSPASLSASVGETVTITCRASENIYSYLAWYQQKQGKSPQLLVYNAKTLAGGVPSRFSGSGSGTQFSLKINSLQPEDFGSYYCQHYYGTPLTFGAGTKLELK
notes: Whole murine hybridoma antibody; kappa light chain; also called 1P4A3.3; 1.P4A3.3
In the case of B2, the binding result in assay [1] is given as “no binding”. Moreover, in assay [2], the EC50 was found to be 0.07 nM.

B3: 1P4A12 murine monoclonal anti-RON antibody (antibody, V domains shown)
VH: EVQLQQSGPELVKPGASMKISCKASGYSFTGYTMNWVKQSHGKKLEWIGLINPYNGGTIYNQKFKGKATLTVDKSSSTAYMELLSLTSEDSAVYYCARWLRRGGYAMDYWGQGASVTVSS
VL: DILLTQSPAILSVSPGERVSFSCRASQSIGTSIHWYQQRTNGSPRLLIKFASESISGIPSRFSGSGSGTDFTLSINSVESEDIADYYCQQSDSWPLTFGAGTKLEVK
notes: Whole murine hybridoma antibody; kappa light chain; also called 1P4A12.2; 1.P4A12.2
On to B3, for which, in assay [1], the binding result is recorded as “no binding”. Also, the 50% effective concentration (EC50) in assay [2] turned out to be 0.07 nM.

B4: 1P5B10 murine monoclonal anti-RON antibody (antibody, V domains shown)
VH: EVQLQQSGPELVKPGASMKISCRAAGFSFTGYTMNWVKQSHGKSLEWIGLINLNNGGTSHNQKFKGKATLTVDKSSSTAYMELLSLTSEDSAVYYCARWLRRGGYAMDYWGQGISVTVSS
VL: DILLTQSPAILSVSPGERVSFSCRASQNIGTSIHWYQQRTNGSPRLLIKYASESISGIPSRFSGSGSGTDFTLSINSVESEDIADYYCQQSDSWPLTFGAGTKLELK
notes: Whole murine hybridoma antibody; kappa light chain; also called 1P5B10.3; 1.P5B10.3.10
For the molecule B4, the binding result in assay [1] was “no binding”. Also, in assay [2], the half-maximal effective concentration (EC50) stood at 0.34 nM.

B5: 1P2E7 murine monoclonal anti-RON antibody (antibody, V domains shown)
VH: DVQLQESGPGLVKPSQSLSLTCTVTGDSITSDYAWNWIRQFPGNKLEWMGYISYSGSTSYNPSLKSRFSITRDTSKNQFFLQLNSVTTEDSATYYCARGGFYYRYAGPGFAYWGQGTLVTVSA
VL: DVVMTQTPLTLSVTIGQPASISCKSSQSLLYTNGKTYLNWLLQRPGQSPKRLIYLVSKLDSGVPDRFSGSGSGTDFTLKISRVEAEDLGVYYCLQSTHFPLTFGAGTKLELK
notes: Whole murine hybridoma antibody; kappa light chain; also called 1P2E7.3; 1.P2E7.3
On to B5, for which the binding result in assay [1] was “no binding”. Also, the 50% effective concentration (EC50) in assay [2] was 0.09 nM.

By EC50 is commonly meant the concentration at which the effect is half-maximal.

Values taken from patent US20090226442A1 (Biogen, published 2009).
